Data: patent US20240309360A1, “TRANS-ACTIVATORS AND METHODS AND USE THEREOF” (THE GOVERNING COUNCIL OF THE UNIVERSITY OF TORONTO, priority 2021, published 2024)

Legend:
[1] = test system: EGFP reporter (7×TetO array, basal CMV promoter) in HEK293T reporter cell line; experiment: Arrayed recruitment assay, PYL1 fusions individually recruited to reporter via ABI1-dCas9 with ABA; type: cell-based, human; conditions: PYL1 fusion, ABA 48 hours, flow cytometry
Excerpt: Treatment of cells with abscisic acid (ABA) induces an interaction between ABI1 and PYL1, thereby recruiting the potential transcriptional activator to a specific genomic locus defined by the guide RNA (gRNA). As a reporter, a HEK293T cell line that contains a stably integrated construct with a 7×TetO array and a basal CMV promoter driving the expression of EGFP was used (Gao et al., 2016). A monoclonal cell line that expresses ABI1-dCas9 and a single gRNA targeting TetO was generated by lentiviral infection.
Arrayed recruitment assays. Reporter cells stably co-expressing ABI-dCas9 and TetO gRNA were seeded either on 48-well or 96-well plates (Sarstedt) to reach 50-70% confluency on the day of transfection. 150 ng of each construct to be tested was transfected with polyethylenimine (PEI) at a ratio of 0.6 μl reagent. The day after transfection, recruitment was induced by treatment with ABA (100 μM). […] Inhibitors were dissolved in DMSO to a stock concentration of 10 mM. The final concentrations used were 100 nM for flavopiridol, 300 nM for JQ1, 1 μM for A-485, 2.5 μM for CX-4945 and 3 μM for AZ191. All inhibitors were a kind gift from the Structural Genomics Consortium (SGC). 48 hours after induction, cells were dissociated and resuspended in flow buffer using a liquid handing robot (TECAN) and analyzed by LSR Fortessa (BD). Cells were gated on high EBFP2 and RFP as a measure of gRNA and transfection control, respectively. Flow cytometry data was analyzed using FlowJo (v10).

[2] = test system: NIH3T3 cells gene expression; experiment: RNA sequencing of NIH-3T3 cells with doxycycline-inducible EGFP-tagged constructs; type: cell-based, mouse; conditions: GFP-tagged
Excerpt: The SRF/TCF pathway, which is regulated by MAP kinase signaling, regulates the expression of immediate-early genes (Gualdrini et al., 2016), whereas the actin-Rho signaling dependent SRF/MRTF pathway targets genes involved in cell motility and adhesion (Miralles et al., 2003). To test if SRF-C3orf62 can regulate target genes of both pathways, stable doxycycline-inducible NIH3T3 cell lines stably expressing SRF, C3orf62, SRF-C3orf62 and Nanoluc fused to GFP were generated. Transgene expression was induced with doxycycline for 24 hours and changes in gene expression were analyzed by RNA-seq. […] These signatures are consistent with the oncogenic nature of the SRF-C3orf62 fusion. […] In contrast, many well-characterized immediate-early target genes of SRF/TCF such as FOS, EGR1, or EGR2 were not affected by ectopic SRF-C3orf62 expression (FIG. 5H).
RNA sequencing and analysis. NIH-3T3 cells with stable integrations of SRF, C3orf62, SRF-C3orf62 or Nanoluc tagged at the C-terminus with EGFP were induced with 1 μg/mL doxycycline for 24 hours. […] Reads were aligned to the Gencode mouse primary assembly (GRCm39) with STAR aligner v2.7.8a. […] Changes in gene expression compared to cells expressing Nanoluc-EGFP were quantified using the edgeR package (Robinson et al., 2010).

[3] = test system: serum response element reporter in NIH3T3 cells; experiment: SRF reporter assay (SRE-Firefly luciferase); type: cell-based, mouse; conditions: NIH3T3 fibroblasts, 3×FLAG tagged constructs, no cofactors
Description: SRF functions together with either ternary complex factors (TCFs; e.g. ELK1) or myocardin-related transcription factors (MRTFs; e.g. MAL) to regulate target gene expression (Buchwalter et al., 2004; Olson and Nordheim, 2010). […] To test this further, the activity of different constructs was assayed in NIH3T3 fibroblasts using a luciferase-based serum response element reporter (Vartiainen et al., 2007).
SRF reporter assay. 30,000 NIH-3T3 cells on 24-well plates were transfected with 8 ng SRF reporter (p3DA.luc), 20 ng reference reporter (pcDNA3.1-Nanoluc-3×FLAG-V5) and 50 ng 3×FLAG tagged constructs (Addgene #87063). Transfection was carried out using Lipofectamine 3000 reagent (Thermo Fisher Scientific, L3000001) according to the manufacturer's protocols. Luciferase constructs were a kind gift from Dr. Maria Vartiainen (University of Helsinki). Cells were maintained in low-serum media (0.5% BCS) for 18 hours and stimulated for 7 hours (15% BCS), after which luciferase activity was measured. Firefly luciferase was normalized to Renilla luciferase activity using data from four independent transfections.

Molecule	activation of the EGFP reporter when individually tested [1]	effects on the transcriptome compared to Nanoluc [2]	activation of serum response element luciferase reporter [3]
RYBP: YAF2_RYBP domain of RYBP (protein, listed as Homo sapiens) IQSANATTKTSETNHTSRPRLKNVDRSTAQQLAVTVGNVTVIITDFKEKTRSSSTSSSTVTSSAGSEQQNQS	robustly activated the reporter		
C3orf62-Cterm: C-terminal fragment of C3orf62 fused to SRF in the fusion (protein, left off: things letters cannot carry; small tags and cut ends, C-terminal fragment of C3orf62 fused to SRF in the fusion) AAVPCAPENENPAFATNHAPVNAKPHALCPERKPLTSKENVLMHSSILAPERESWRTAGEGENWRKENLRKDMERDLKADSNMPLNNSSQEVTKDLLDMIDHTSIRTIEELAGKIEFENELNHMCGHCQDSPFKEEAWALLMDKSPQKATDADPGSLKQAFDDHNIVETVLDLEEDYNVMTSFKYQIE	strongly activated the GFP reporter		
SRF: Serum Response Factor (protein, left off: things letters cannot carry; small tags and cut ends, Serum Response Factor) MLPTQAGAAAALGRGSALGGSLNRTPTGRPGGGGGTRGANGGRVPGNGAGLGPGRLEREAAAAAATTPAPTAGALYSGSEGDSESGEEEELGAERRGLKRSLSEMEIGMVVGGPEASAAATGGYGPVSGAVSGAKPGKKTRGRVKIKMEFIDNKLRRYTTFSKRKTGIMKKAYELSTLTGTQVLLLVASETGHVYTFATRKLQPMITSETGKALIQTCLNSPDSPPRSDPTTDQRMSATGFEETDLTYQVSESDSSGETKDTLKPAFTVTNLPGTTSTIQTAPSTSTTMQVSSGPSFPITNYLAPVSASVSPSAVSSANGTVLKSTGSGPVSSGGLMQLPTSFTLMPGGAVAQQVPVQAIQVHQAPQQASPSRDSSTDLTQTSSSGTVTLPATIMTSSVPTTVGGHMMYPSPHAVMYAPTSGLGDGSLTVLNAFSQAPSTMQVSHSQVQEPGGVPQVFLTASSGTVQIPVSAVQLHQMAVIGQQAGSSSNLTELQVVNLDTAHSTKSE		very limited or no effects on the transcriptome	did not activate the reporter
C3orf62: full-length C3orf62 protein (protein, left off: things letters cannot carry; small tags and cut ends, full-length C3orf62 protein) MHYIKTWSLLGEMSEKLRRCRKELTAAIDRAFEGVSYSQECTGQQRLELSAAPLSFSLPVHRLLCRRHPLAACSSAAPFAAVPCAPENENPAFATNHAPVNAKPHALCPERKPLTSKENVLMHSSILAPERESWRTAGEGENWRKENLRKDMERDLKADSNMPLNNSSQEVTKDLLDMIDHTSIRTIEELAGKIEFENELNHMCGHCQDSPFKEEAWALLMDKSPQKATDADPGSLKQAFDDHNIVETVLDLEEDYNVMTSFKYQIE		very limited or no effects on the transcriptome	did not activate the reporter
CBX6: CBX-C domain of CBX6 (protein, listed as Homo sapiens) GASSEPEAGDWRPEMSPCSNVVVTDVTSNLLTVTIKEFCNPEDFEKVAAGVAGAAGGGGSIGASK	activated the reporter weakly		
SPDYC: Spy1/RINGO family protein (protein, listed as Homo sapiens) MLWAIPELGSPCPISISYEMSDSQDPTTSPVVTTQVELGGCSRQGGGNGFLRFRQHQEVQAFLSLLEDSFVQEFLSKDPCFQISDKYLLAMVLVYFQRAHLKLSEYTHSSLFLALYLANDMEEDLEGPKCEIFPWALGKDWCLRVGKFLHQRDKLWARMGFRAVVSRQCCEEVMAKEPFHWAWTRDRRPHHGGVQRVCPQVPVRLPRGPGLSPPHCSPCGLPQHCSSHLLKPVSSKCPSLTSECHRPPSQNYLSRVKNAWGGDFLIVLPPQMQLEPGTYSLRIFPKPPARPGH	inactive in the recruitment assay		
